This passage reports binding result, EC50 and Kd results from patent US20230193285, “BISPECIFIC PERSONALIZED APTAMERS” (Aummune Ltd., published 2023).

Data set [1] has as its target T1, Notch2 (Homo sapiens, UniProt Q04721 Q04721:26-1677). As to the kind of experiment: thermofluorimetric analysis. Conditions: tags: Fc fusion, R&D Systems. How it is done:
(§1) TFA was used to determine the binding of CTL3 with its putative target Notch2.100 nM CTL3, 1 uM SYBR green I (sigma), Fc-Notch2 human (R&D Systems) or Fc-CD160 (abcam) at 20, 40, 80, 160, and 320 nM were mixed together and SYBR green and fluorescence was measured from Temp=25° C. to Temp=95° C. at 1 degree/min using RT-PCR, in triplicates. The subsequent experiment was done with 50 nM of either CTL3 (SEQ ID NO: 3), scrambled-CTL3-A (SEQ ID NO: 86), or scrambled-CTL3-B (SEQ ID NO: 87); 1 µM SYBR green I (sigma); Fc-Notch2 human (R&D Systems), Fc-Notch2 mouse (R&D Systems) or Fc-Notch2 rat at 25, 50, 100 and 200 nM similar to the former experiment.

Data set [2] addresses T2, CD160 (UniProt O95971 O95971:25-159).
T2 sequence: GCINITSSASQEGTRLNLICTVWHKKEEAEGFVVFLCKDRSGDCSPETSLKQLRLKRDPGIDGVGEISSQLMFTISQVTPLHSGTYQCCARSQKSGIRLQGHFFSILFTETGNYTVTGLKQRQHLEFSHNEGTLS
As to the kind of experiment: thermofluorimetric analysis; specificity control. Conditions: tags: Fc fusion, abcam. How it is done: as §1
(§2) A Tₘ melting curve profile was generated by measuring SYBR green fluorescence during temperature gradient, to monitor aptamer-protein complexes in the presence of different concentrations of either Notch2 or the non-specific control (CD 160 protein). Only upon the addition of increasing concentrations of Notch2, and not CD160, a dose-dependent change in CTL3-associated fluorescence was measured (FIG. 19). When looking at the total fluorescence graph, high fluorescence intensity can be seen at 25° C., however, when examining the derivative rate of change of […] (dF/dT) curves, the temperature-dependent intensity reached a maximum at 37° C.
On the technique in general: DSF heats the sample and reads unfolding from a dye or from intrinsic fluorescence.

In data set [3] the target is T1, Notch2. Kind of data set: thermofluorimetric analysis with SYBR green; dose-dependent, saturates between 100-200 nM protein. As to conditions: tags: Fc fusion, R&D Systems. On the procedure:
as §1, §2

In data set [4] the target is CD3 epsilon (Jurkat T cells) (Homo sapiens, UniProt P07766 P07766:23-207). As to the kind of experiment: flow; binding to Jurkat cells, 1 h 37 C, PBS 1 mM MgCl2, BSA, tRNA. Conditions: tags: native on Jurkat cells ATCC TIB-152; label: Cy5-CpG' complementary strand. How it is done:
5 x10⁴ Jurkat cells were washed and re-suspended in x1 folding buffer that contain 0.1% BSA and 0.01% tRNA. 0.1-80 nM of CS6 aptamer were labelled with CpG′-Cy5 tag (1:1 ratio) and folded (95℃ 5 min, ice 10 min, and maintenance at 4℃). Next, the DNA aptamers were mixed with the cells and incubated for 1 hr at 37℃ in V shape 96 well plate under gentle shaking conditions. After incubation, the cells were washed twice with folding buffer X1 and analysed via flow cytometry (CytoFlex).
Subsequently CS6 effective concentration 50 (EC₅₀) was evaluated. A serial dilution of -Cy5 labelled aptamer was incubated with Jurkat cells for 1 hr at 37℃ and assessed for binding via flow cytometry (FIG. 27).

Data set [5] deals with T3, CD3 epsilon (Homo sapiens, UniProt P07766 P07766:23-126). Kind of data set: HPLC size exclusion; negative control sequence. Conditions: tags: Fc chimera His tag, Abcam ab220590; label: Cy5. How it is done:
Top five candidates (CS6, CS7, CS8, CS9, and CS8c; SEQ ID NOs: 88-92, respectively) were synthesized with a 5(5′) phosphothioated CpG motif and assayed for Human CD3ε (hCD3ε) binding via the HPLC size exclusion column. In this method, the aptamers were labelled with Cy5 complementary sequence to the CpG site (Cy5-CpG’). Then, the folded-labelled candidates are incubated, each, with the CD3ε- recombinant protein or with negative control IgG1 (1 hr at 37℃ and 4℃) and analyzed by HPLC ProSEC 300S size exclusion column (Agilent) at 570 nm absorption. Upon protein binding, the aptamer-protein complex has a greater mass than a free aptamer and as a result, the retention time (RT) at the column is expected to be shorter. Inversely, in the case of non-binding aptamer, the RT in the presence of protein will be the same as in the absence of the protein. As a control, PolyT sequence was used.
(SEC sorts molecules by how far they enter the pores of the column.)

Data set [6] addresses T3, CD3 epsilon. Kind of data set: SPR. As to conditions: tags: Fc chimera His tag, Abcam ab220590.

T1 sequence (Q04721 26-1677, one chain of several): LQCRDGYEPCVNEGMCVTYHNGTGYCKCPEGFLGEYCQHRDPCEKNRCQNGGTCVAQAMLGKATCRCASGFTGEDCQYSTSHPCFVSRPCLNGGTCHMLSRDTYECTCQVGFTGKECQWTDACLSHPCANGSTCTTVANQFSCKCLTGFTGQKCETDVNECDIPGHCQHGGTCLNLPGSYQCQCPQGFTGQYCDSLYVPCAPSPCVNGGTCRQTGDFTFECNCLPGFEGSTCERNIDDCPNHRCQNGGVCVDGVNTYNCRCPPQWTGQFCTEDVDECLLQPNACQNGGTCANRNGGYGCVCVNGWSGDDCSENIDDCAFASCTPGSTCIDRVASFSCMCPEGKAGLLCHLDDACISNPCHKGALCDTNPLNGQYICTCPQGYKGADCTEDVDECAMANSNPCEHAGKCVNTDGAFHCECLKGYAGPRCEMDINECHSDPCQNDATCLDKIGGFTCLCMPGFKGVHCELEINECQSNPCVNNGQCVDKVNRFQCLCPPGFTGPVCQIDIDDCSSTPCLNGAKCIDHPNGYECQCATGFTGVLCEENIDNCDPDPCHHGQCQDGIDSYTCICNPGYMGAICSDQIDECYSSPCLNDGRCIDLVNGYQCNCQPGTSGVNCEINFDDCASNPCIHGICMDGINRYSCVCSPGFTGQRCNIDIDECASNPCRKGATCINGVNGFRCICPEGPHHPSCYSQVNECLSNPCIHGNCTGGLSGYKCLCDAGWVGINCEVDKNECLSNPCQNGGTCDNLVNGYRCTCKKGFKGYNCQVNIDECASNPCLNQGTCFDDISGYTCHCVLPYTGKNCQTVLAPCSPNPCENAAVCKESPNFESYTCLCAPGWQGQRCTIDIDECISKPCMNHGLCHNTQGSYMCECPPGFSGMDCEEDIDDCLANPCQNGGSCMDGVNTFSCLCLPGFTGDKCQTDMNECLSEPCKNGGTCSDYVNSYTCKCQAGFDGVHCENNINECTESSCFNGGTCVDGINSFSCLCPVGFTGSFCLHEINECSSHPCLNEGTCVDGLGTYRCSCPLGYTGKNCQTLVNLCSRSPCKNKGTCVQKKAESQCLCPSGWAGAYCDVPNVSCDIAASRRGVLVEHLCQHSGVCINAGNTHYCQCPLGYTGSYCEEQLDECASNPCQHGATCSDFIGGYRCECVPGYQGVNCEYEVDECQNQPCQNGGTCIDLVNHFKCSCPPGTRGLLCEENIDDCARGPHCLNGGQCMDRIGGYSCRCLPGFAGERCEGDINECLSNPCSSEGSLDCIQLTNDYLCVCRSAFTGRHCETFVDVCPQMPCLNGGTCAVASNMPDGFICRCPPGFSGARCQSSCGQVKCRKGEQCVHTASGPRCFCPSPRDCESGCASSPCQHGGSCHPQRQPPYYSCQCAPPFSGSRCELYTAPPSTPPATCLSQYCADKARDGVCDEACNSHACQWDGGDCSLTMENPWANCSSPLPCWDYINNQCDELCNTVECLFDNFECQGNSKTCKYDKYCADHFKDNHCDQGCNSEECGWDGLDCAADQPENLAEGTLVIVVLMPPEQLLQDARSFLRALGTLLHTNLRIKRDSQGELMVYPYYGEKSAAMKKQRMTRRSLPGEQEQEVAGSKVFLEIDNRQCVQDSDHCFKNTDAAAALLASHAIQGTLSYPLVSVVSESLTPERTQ
T3 sequence (P07766 23-126, one chain of several): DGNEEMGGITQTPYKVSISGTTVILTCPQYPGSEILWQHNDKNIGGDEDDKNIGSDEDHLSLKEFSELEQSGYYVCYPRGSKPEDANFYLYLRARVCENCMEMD
Chain of CD3 epsilon (Jurkat T cells) (P07766 23-207, one chain of several): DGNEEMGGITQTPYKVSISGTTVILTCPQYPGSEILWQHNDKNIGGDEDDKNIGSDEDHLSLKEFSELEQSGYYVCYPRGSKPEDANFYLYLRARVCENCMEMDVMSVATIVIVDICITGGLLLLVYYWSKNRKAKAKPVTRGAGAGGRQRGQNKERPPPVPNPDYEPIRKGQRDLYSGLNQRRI

For TCTTTCGTTAGCGCTTCTCTCTTGCGATTCCGACCGCATATTCACGTCTT (ssDNA) [Scrambled-CTL3-B], in data set [1], the binding result is “no binding”.

Regarding GCATACCTTTCGTATGCCTTTTTGACCCGTATTTTTGCCCTACCCTTCGG (ssDNA) [CTL3], the binding result in data set [2] is “no binding”; in data set [3] it was “binds”.

B1: CpG1-CS6 (ssDNA)
DNA: TCGTCGTCGCGGTTCGCGTCCGTATCGTATAAGGGCTGCTTAGGATTGCGATAATACGGTCAA
modifications: PS on first five 5' nucleotides of CpG motif
For the molecule B1, the EC50 (in general, the concentration giving half of the maximal effect) in data set [4] worked out at 19.6 nM.

B2: PolyT control (ssDNA)
DNA: TCGTCGTCGCGGTTCGCGTCCGTTTTTTTTTTTTTTTTTTTTTTTTTTTTTTTTTTTTTTTTTTTTTTTTTTT
Turning to B2, the binding result in data set [5] is “no binding”.

As for ATCGTATAAGGGCTGCTTAGGATTGCGATAATACGGTCAA (ssDNA) [CS6], the affinity in data set [6], expressed as Kd, was 31 nM.

Regarding GTTCTTATAATCGCCTCTGCGCTATGTTCTTGCTCGCCTTCCATATCGCT (ssDNA) [Scrambled-CTL3-A], the binding result in data set [1] is “no binding”.
